Laboratory results from patent US6221608A, “Methods for identifying erythropoietin receptor binding protein” (Ortho Pharmaceutical Corporation, priority 1997, dated 2001).
Read-outs that look alike come from different tables or passages of the source. Bridge positions count the residues as written; N and C are the ends. Square brackets hold non-standard residues; d marks the D form. Ends that are not written are not given here. Peptide text beside a SMILES is read from it. Tyr(3,5-Br2) = N[C@@H](Cc1cc(Br)c(O)c(Br)c1)C(=O)O

Experiments:
[1] = target: T1, EBP-Ig (Homo sapiens, UniProt P19235); assay: EBP-Ig Flash Plate EPO radioligand binding assay; details: for IC50: read-out: EBP-Ig Binding IC 50; for competition in EBP-Ig binding assay: result in words
T1 construct: one encoding amino acids 1-225 of the extracellular domain of the mature hEPOR; made in house
T1 sequence (P19235 with tags, fused parts or gaps limits assumed): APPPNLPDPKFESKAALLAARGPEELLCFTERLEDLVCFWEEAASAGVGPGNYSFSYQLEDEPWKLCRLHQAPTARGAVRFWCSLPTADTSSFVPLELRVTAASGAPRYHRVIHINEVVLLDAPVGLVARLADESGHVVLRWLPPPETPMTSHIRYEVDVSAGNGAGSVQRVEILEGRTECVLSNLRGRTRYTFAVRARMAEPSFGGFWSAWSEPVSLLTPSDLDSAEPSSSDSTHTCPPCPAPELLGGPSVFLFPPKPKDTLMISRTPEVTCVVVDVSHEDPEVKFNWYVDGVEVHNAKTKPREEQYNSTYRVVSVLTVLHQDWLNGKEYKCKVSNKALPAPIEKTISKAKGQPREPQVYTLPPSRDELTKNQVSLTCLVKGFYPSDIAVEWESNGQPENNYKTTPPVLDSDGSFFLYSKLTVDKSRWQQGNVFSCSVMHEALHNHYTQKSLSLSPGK
Excerpt: The interaction of biotin and strepavidin is frequently employed to capture and effectively immobilize reagents useful in assay protocols and has been employed here as a simple method to capture and immobilize EBP-Ig. EBP-Ig is initially randomly modified with an amine reactive derivative of biotin to produce biotinylated-EBP-Ig. Use of strepavidin coated plates allows the capture of the biotinylated EBP-Ig on the surface of a scintillant impregnated coated well (Flash plates, NEN-DuPont). […] The amount of light produced was quantified to estimate the amount of ligand binding. The specific assay format was suitable for the multi-well plate capacity of a Packard TopCount Microplate Scintillation counter.
Biotinylated EBP-Ig (3S mutant) was prepared as follows. EBP-Ig (3 ml, OD280 2.9) was exchanged into 50 mM sodium bicarbonate, pH 8.5 using a Centriprep 10 ultrafiltration device. […] 10 μl of a 4 mg/ml solution of NHS-LC-Biotin (Pierce) was added and the reaction mixture placed on ice in the dark for two hours. Unreacted biotin was removed by exchange of the reaction buffer into PBS in a Centriprep 10 device and the protein reagent aliquoted and stored at […].
All wells were adjusted to a final DMSO concentration of 5%. […] After all additions were made, the plate was covered with an adhesive top seal and placed in the dark at room temperature overnight. The next day all liquid was aspirated from the wells to limit analyte dependent quench of the signal, and the plates were counted on a Packard TOPCOUNT Microplate Scintillation Counter. […] Corrected total binding (CTB) was calculated as: TB-NSB=CTB. The concentration of test peptide which reduced CTB to 50% was reported as the IC50.

[2] = target: T2, EBP (Homo sapiens, UniProt P19235); assay: EBP bead competitive binding assay vs [125I]EPO; details: for competition in EBP-bead binding assay: result in words
T2 construct: one encoding amino acids 1-225 of the extracellular domain of the mature hEPOR; made in house; host or cells: E. coli BL21(DE3)pLysS (plasmid pSAM3)
T2 sequence (P19235 25-249): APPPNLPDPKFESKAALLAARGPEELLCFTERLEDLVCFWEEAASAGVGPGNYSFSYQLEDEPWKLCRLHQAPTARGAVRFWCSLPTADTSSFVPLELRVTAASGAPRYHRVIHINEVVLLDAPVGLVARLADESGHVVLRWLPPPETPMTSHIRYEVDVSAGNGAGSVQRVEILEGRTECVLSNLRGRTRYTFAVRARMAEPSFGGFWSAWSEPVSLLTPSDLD
Excerpt: EBP as produced by the above method contains one free sulfhydryl group which can be modified without affecting the solution phase binding of ligand. In order to immobilize the EBP for equilibrium binding analysis this observation was extended for the covalent attachment of EBP to agarose beads. The iodoacetyl activation chemistry of Sulfolink beads (Pierce Chemical Co, Rockford, Ill.) is specific for free thiols and assures that the linkage is not easily reversible. EBP-Sulfolink beads were made as follows: Sulfolink gel suspension (10 ml) was mixed with coupling buffer (40 ml: 50 mM TRIS, pH 8.3, 5 mM EDTA) and the gel was allowed to settle. The supernatant was removed and the EBP (0.3-1 mg/ml in coupling buffer) to be bound was added directly to the washed beads. The mixture was rocked gently for 30 minutes at room temperature, and the beads were allowed to settle for 1 hour at room temperature. The supernatant was removed and saved, and the beads were washed twice with 20 ml of coupling buffer. The washes were retained as well. The beads were then treated with 20 ml of 0.05 M cysteine for 30 minutes at room temperature to block unbound sites. Finally, the beads were washed with 50 ml of 1 M NaCl, then with 30 ml of PBS, and resuspended in 20 ml of PBS and stored at 4° C. The amount of EBP which was covalently bound to the beads was determined by comparing the OD280 of the original EBP solution to the total OD280 recovered in the reaction supernatant and the two 20 ml washes. Typically, 40-60% of the applied EBP remains associated with the beads.
Competitive binding assays of peptides were performed as described herein. Individual peptides were dissolved in DMSO to prepare a stock solution of 1 mM. […] Initial assay points with no added peptide were included in each assay to determine total binding. Binding mixtures were incubated overnight at room temperature with gentle rocking. The beads were then collected using Micro-columns (Isolab, Inc.) and washed with 3 mL of wash buffer (PBS/5% BSA). The columns containing the washed beads were placed in 12×75 mm glass tubes and bound radioactivity levels determined in a gamma counter.

[3] = target: T2, EBP; assay: DPDPB crosslinking: dimerization of EBP by EPO mimetic peptides (SDS-PAGE); format: biochemical; details: 22 μM EBP, 1.1 mM DPDPB, 400 μM peptide, visual detection of dimer product
Protocol: Peptide-mediated receptor dimerization was stabilized for study using the non-water soluble homobifunctional sulfhydryl reactive cross linking reagent DPDPB (1,4-di-[2'-pyridyldithio)propionamido]butane, Pierce Chemical Co., Rockford, Ill.). EBP (22 μM) was incubated in the presence or absence of DPDPB (1.1 mM), 400 μM peptide ligand, 75 μl of PBS, pH 7.5 with all reactions and controls containing a final concentration of 4.4% DMSO and 0.007% TFA. These samples were incubated for 4 hours at room temperature and stored at 4° C. for 12 hours before analysis under reducing and non-reducing conditions by SDS-PAGE (10-20% gradient gels, Integrated Separations Systems, Natick, Mass.).

[4] = target: T1, EBP-Ig; assay: Fluorescence polarization competitive binding assay with fluorescein-RWJ 61718; details: for competition in FP/EBP-Ig assay: fluorescein-RWJ 61718 as labelled ligand, result in words; for IC50: read-out: FP/EBP-Ig IC50
Protocol: Fluorescence polarization (FP) is a useful technique capable of providing information on changes in molecular volume which occur upon the association or dissociation of two molecules. […] Conversely, if a non-fluorescent competitor molecule is added to this complex then a decrease in the fluorescence polarization value can be anticipated [Checovich, W. J., Bolger, R. E. & Burke, T. Fluorescence polarization-a new tool for cell and molecular biology, Nature 375, 254-256 (1995)]. RWJ 61718 was labeled with a fluorescein reporter group by treating 10 mg of peptide solubilized in 3 ml of PBS with 17.9 mg of fluorescein isothiocyanate dissolved in 1 ml DMSO (added in 100 μl aliquots). RWJ 61718 contained a single amine (N-terminus) and 1:1 label incorporation was expected. This mixture was placed on ice and the solution cleared by the addition of 1.0 ml of DMSO. Following a 34 hour incubation at 4° C., fluorescein labeled RWJ 61718 was isolated by reverse phase HPLC. The entire reaction mixture was diluted 1:2 with 0.1% trifluoroacetic acid (TFA; mobile phase A), pumped onto a C-18 reversed phase preparative column (Vydac #218tp54) at 8 ml/min and eluted with a 90 minute linear gradient of 0-100% mobile phase B (acetonitrile containing 0.7% TFA). Fractions containing fluorescent products (excitation wavelength 488 nm, emission wavelength 530 nm) at 530 nm were collected and lyophilized. A highly fluorescent peak eluting at near 60 minutes (ca 60% mobile phase B) was determined to be the desired product by monitoring FP changes in the presence of EBP-Ig.
A competitive FP assay using fluorescein labeled RWJ 61718 as the receptor ligand was established as follows using a Fluorescence Polarization Microtiter System (Jolley Consulting). Test peptides at variable concentrations and EBP-Ig (3S mutant, 0.025 mg/ml) were incubated for 1 hour at room temperature in 90 μl PBS and dispensed into a Dynatech Microfluor plate 96 well plate. Fluorescein-RWJ 61718 was added to each well (10 μl in 0.1% TFA) to a final concentration of 2.5 μM followed by an additional 1 hr incubation at room temperate in the dark. Values for milliPolarization (mP) were obtained at an instrument voltage setting of 8.0. Baseline peptide values were determined from wells which contained only labeled peptide and PBS. Total mP readings were determined in test wells which contained labeled peptide and EBP-Ig only. Peptide concentration dependent competitive reduction in mP values were determined and an IC50 value calculated.

[5] = tested on: FDC-P1/hER cells; assay: EPO dependent cell proliferation assay; format: cell-based, human EPO receptor; details: for FDCP-P1-hER ED50 / EC50: amount of peptide for one half of maximal activity of recombinant EPO, 42 h + 6 h [3H]thymidine; for EPO mimetic activity / proliferative capacity: cell proliferation, result in words; for EC50: 2880 min, read-out: FDCP-P1-hER ED50
Protocol: At 24 hours, the cells were counted, resuspended at 800,000 cells/ml and dispensed at 40,000 cells/well. Stock solutions of the respective peptides (10 mM in DMSO) were prepared and dispensed in triplicate to final concentrations of 1×10^-10 M through 1×10^-5 M and adjusted to a final volume of 0.2 ml. […] A standard EPO dose response curve was generated with each assay series. After a 42 hours incubation at 37° C. (about 2 cell doublings) 1 μCi/well of [^3 H] thymidine was added and the incubation continued for 6 hours at which time the cells were harvested and counted to assess [^3 H] thymidine incorporation as a measure of cell proliferation.

[6] = EBP-Ig (3S mutant) 0.025 mg/ml, fluorescein-RWJ 61718 2.5 μM
[7] = 0.5 nM [125I]EPO, 1 μg/ml biotinylated EBP-Ig (3S mutant), 5% DMSO, overnight
[8] = 0.5 nM [125I]EPO, 2.5% DMSO, overnight, room temperature

Compound	IC50 [1] [µM]	IC50 [2] [µM]	DPDPB cross-linking [3]	DPDPB cross-linking ([3]; listed as 61177)	FP/EBP-Ig IC50 [4, 6]	competition in FP/EBP-Ig assay [4]	FDCP-P1-hER ED50 [5]	EPO mimetic activity / proliferative capacity [5]	IC50 [1, 7] [µM]	IC50 [4, 6] [µM]	IC50 [2, 8] [µM]	EC50 [5] [µM]	competition in EBP-Ig binding assay [1]	competition in EBP-bead binding assay [2]
CC(C)C[C@@H]1NC(=O)[C@@H]2CCCN2C(=O)CNC(=O)[C@H](Cc2ccccc2)NC(=O)[C@H](Cc2c[nH]cn2)NC(=O)[C@@H](NC(=O)[C@@H](N)CO)CSSC[C@@H](C(=O)N[C@@H](CCCCN)C(N)=O)NC(=O)[C@H](C(C)C)NC(=O)[C@H](Cc2c[nH]c3ccccc23)NC(=O)[C@H]([C@@H](C)O)NC1=O [RWJ 61177] (H-SCHFGPLTWVCK-NH2; disulfide 2-11)	500	90												
CC(C)C[C@@H]1NC(=O)[C@@H]2CCCN2C(=O)CNC(=O)[C@H](Cc2ccccc2)NC(=O)[C@H](Cc2cnc[nH]2)NC(=O)[C@@H](NC(=O)[C@@H](N)CO)CSSC[C@@H](C(=O)N[C@@H](CCCCN)C(N)=O)NC(=O)[C@H](C(C)C)NC(=O)[C@H](Cc2c[nH]c3ccccc23)NC(=O)[C@H]([C@@H](C)O)NC1=O [RWJ 61177] (H-SCHFGPLTWVCK-NH2; disulfide 2-11)			deficient in crosslinking ability	negative	Inactive	inactive	Inactive	without proliferative capacity						
GGLYACHMGPMTWVCQPLRG (GGKYACHMGPMTWVCQPKRG) [RWJ 61718]			positive					with proliferative capacity	0.1	0.35	3	0.1		
GGTXSCHFGPLTWVCKPQGG (GGT[Tyr(3,5-Br2)]SCHFGPLTWVCKPQGG-NH2; disulfide 6-15 (inferred)) [RWJ 62021, X = 3,5-dibromo-tyr]			some crosslinking potential			very efficient competitors	Inactive	without proliferative potential	400	5	150		very poorly	very poorly
GGTYSCHFGPLTWVCKPQ [RWJ 61596]											8	0.08		
GGTYSCHFGPLTWVCKPQGG [RWJ 61233]			positive			positive		functions as an EPO mimetic	1	0.5	5	0.1	competes at similar levels in both the EBP-bead and EBP-Ig binding assays	competes at similar levels in both the EBP-bead and EBP-Ig binding assays
YSCHFGPLTWVCK (YSCHFGPLYWVCK) [RWJ 61279]			positive					with proliferative capacity			70	8		
